Test results as given in patent publication US20250042943A1, “FAP DETECTION” (THE UNIVERSITY COURT OF THE UNIVERSITY OF EDINBURGH, priority 2021, published 2025).

Tests used:
[1] = molecular target: T1, rhFAP (Homo sapiens, UniProt Q12884); test: Probe cleavage by recombinant human FAP (fluorescence read); type: biochemical
T1 sequence (Q12884 1-760): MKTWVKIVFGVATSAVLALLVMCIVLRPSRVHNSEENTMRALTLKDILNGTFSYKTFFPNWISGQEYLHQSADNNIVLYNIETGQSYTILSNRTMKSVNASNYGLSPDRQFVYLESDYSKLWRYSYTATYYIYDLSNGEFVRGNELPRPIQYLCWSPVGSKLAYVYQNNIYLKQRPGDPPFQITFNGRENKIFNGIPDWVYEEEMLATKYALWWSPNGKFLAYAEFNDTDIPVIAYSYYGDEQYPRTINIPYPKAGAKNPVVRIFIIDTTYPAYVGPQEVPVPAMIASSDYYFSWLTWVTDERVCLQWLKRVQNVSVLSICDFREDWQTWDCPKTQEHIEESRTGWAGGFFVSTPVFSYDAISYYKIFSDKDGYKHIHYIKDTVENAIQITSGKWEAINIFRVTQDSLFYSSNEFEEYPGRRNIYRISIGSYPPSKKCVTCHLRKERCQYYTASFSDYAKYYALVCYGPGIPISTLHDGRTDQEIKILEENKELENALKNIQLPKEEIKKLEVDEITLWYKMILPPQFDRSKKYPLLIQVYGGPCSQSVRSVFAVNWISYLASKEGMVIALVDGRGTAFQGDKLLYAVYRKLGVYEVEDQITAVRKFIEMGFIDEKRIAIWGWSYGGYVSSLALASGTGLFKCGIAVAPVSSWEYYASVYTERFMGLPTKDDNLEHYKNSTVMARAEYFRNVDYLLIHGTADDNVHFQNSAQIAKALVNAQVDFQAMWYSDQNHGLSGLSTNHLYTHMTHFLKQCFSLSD

[2] = molecular target: T2, rhPREP (Homo sapiens, UniProt P48147); test: Probe cleavage by recombinant human PREP; type: biochemical; details: probe 5 μM, enzyme 0.1 μg/ml, read 480/530 nm
T2 sequence (P48147 1-710): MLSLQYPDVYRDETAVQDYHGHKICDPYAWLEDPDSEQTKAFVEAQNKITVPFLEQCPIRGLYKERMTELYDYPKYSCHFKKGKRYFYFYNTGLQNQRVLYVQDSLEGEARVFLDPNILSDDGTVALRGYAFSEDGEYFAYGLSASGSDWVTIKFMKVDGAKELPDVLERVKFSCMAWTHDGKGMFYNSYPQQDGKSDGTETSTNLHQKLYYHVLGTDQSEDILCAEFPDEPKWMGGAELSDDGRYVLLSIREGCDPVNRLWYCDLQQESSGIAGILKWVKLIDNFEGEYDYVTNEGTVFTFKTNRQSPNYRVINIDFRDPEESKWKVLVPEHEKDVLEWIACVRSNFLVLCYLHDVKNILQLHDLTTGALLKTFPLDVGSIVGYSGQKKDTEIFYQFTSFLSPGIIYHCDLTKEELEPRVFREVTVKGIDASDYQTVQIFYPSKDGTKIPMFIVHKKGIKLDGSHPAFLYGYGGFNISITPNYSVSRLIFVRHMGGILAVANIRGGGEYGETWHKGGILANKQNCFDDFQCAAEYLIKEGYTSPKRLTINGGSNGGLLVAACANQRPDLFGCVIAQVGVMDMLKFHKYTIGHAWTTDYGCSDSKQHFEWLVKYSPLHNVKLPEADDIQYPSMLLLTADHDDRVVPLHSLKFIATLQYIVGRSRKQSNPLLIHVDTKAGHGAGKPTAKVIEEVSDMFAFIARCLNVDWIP

[3] = molecular target: rhDPPIV (Homo sapiens, UniProt P27487); test: Probe cleavage by recombinant human DPPIV (exopeptidase activity); type: biochemical; details: probe 5 μM, enzyme 0.1 μg/ml, read 480/530 nm
Sequence of rhDPPIV (P27487 whole entry): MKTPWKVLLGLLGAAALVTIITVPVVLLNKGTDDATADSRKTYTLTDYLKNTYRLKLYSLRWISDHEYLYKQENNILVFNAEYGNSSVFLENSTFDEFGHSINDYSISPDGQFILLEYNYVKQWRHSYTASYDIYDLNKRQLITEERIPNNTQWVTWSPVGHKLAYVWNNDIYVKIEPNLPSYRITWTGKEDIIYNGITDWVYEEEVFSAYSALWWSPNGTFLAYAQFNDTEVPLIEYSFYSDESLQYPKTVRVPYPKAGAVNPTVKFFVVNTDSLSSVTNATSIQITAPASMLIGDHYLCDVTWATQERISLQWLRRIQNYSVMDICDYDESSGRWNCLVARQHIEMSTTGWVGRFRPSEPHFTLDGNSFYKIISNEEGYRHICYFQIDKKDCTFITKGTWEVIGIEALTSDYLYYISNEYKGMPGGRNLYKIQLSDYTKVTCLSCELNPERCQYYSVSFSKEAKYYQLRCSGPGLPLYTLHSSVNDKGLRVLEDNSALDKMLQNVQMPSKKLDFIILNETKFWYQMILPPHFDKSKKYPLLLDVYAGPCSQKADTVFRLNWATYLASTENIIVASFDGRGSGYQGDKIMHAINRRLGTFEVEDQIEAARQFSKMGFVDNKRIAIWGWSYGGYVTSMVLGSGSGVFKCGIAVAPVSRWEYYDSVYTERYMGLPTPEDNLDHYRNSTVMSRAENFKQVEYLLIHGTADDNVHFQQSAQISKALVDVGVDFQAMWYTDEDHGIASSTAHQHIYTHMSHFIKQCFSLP

[4] = tested on: activated neutrophil lysate; test: Assessment on activated neutrophil lysate; details: data not shown
[5] = molecular target: T3, FAP (Homo sapiens, UniProt Q12884); details: Bainbridge et al; cited from earlier work
T3 sequence (Q12884 24-760 limits assumed): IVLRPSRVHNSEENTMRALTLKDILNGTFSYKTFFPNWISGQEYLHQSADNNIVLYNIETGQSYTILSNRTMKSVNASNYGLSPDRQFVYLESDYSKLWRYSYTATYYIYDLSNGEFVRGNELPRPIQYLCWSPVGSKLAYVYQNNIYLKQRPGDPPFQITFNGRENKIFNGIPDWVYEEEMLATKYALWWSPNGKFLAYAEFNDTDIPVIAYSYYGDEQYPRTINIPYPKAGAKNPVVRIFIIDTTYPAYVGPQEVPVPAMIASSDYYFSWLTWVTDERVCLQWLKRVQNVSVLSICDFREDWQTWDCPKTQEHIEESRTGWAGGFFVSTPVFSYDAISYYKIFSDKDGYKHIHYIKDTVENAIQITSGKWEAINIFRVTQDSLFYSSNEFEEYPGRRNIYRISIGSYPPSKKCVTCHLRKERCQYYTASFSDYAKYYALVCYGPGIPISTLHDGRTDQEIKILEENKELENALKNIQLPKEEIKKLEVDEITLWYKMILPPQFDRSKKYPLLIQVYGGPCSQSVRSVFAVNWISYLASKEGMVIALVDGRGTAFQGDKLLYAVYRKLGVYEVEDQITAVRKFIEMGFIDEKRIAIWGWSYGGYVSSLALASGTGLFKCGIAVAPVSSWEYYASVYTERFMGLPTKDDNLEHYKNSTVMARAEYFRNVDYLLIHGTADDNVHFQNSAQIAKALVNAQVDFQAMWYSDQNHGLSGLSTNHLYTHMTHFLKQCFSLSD

Substance: Lys(MethylRed)-Val-(D)Ser-Pro-Ser-Gln-Gly-Lys(5-FAM)-[Peg2-(D)Lys]3-NH2 [FAP-sP, reference compound]
- signal (relative fluorescence intensity) with rhFAP ([1]; comparison between probe iterations): improved signal characteristics
- FAP specificity (over PREP) ([1]; from recombinant enzyme assessment): FAP specificity
- cleavage by rhPREP [2]: no cleavage
- cleavage by rhPREP ([2]; listed as FAP-sp): no rhPREP cleavage
- cleavage by rhDPPIV (exopeptidase activity) [3]: no cleavage
- MALDI-TOF analysis of probe after activated neutrophil lysate [4]: all FAP-sP probe was cleaved

Substance: VsPSQG
- specificity over PREP [5]: specificity over PREP
